The results in this text go back to US20230030032A1 (AGGAMIN, published 2023).

Assay [1] deals with T1, soluble Endoglin (sEng), recombinant, as spiked or purified protein (human, UniProt P17813 26-586, limits assumed).
T1 construct: sEng applied to columns (80 or 60 ng/ml), used in SEC and coated in ELISA; construct not specified there; also called spiked sEng
T1 sequence (looked up): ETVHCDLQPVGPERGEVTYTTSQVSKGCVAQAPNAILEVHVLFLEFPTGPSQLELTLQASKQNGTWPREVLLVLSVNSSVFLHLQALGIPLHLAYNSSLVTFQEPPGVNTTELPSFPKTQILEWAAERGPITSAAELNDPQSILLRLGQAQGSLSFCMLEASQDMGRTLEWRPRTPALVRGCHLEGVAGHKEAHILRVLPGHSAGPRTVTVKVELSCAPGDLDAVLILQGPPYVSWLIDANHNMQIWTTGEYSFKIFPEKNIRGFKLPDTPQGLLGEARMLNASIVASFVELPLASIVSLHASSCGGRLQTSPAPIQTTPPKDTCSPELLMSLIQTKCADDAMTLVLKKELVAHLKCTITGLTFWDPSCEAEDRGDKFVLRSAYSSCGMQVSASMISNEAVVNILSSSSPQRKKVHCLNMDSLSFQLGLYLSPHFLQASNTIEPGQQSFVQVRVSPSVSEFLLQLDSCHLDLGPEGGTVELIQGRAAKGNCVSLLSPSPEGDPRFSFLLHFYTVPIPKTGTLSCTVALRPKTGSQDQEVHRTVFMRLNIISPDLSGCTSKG
The assay can be described thus: sandwich ELISA: cENG10 coated at 4 ug/mL, serial dilutions of preformed equimolar Bmp9/sEng complex, bound Bmp9 detected with biotinylated anti-Bmp9 antibody and an HRP conjugate. How it is done:
(§1) For the ELISA experiment shown, cENG10 antibody was coated onto microplates and incubated with the analyte (a preformed Bmp9/sEng complex, Bmp9 alone, or sEng alone). Bound Bmp9 was detected using a biotinylated anti-Bmp9 antibody and a secondary, HRP-conjugated antibody, allowing for colorimetric detection of cENG10 binding to the Bmp9/sEng complex.
(§2) To test whether or not antibody cENG10 blocks binding of sEng and its ligands was assessed using a sandwich ELISA. To that end, purified human Bmp9 and sEng were mixed at equimolar ratio in PBS (final total concentration 1 μM), incubated for 30 min and serially diluted (in 1% BSA) to 0.02 to 20 nM. Control solutions containing only Bmp9 or sEng were also prepared. Antibody cENG10 (4 μg/mL) was coated onto microplate wells. After a washing step, the wells were blocked with 1% BSA. Serial dilutions of either the preformed Bmp9-sEng complex, sEng alone, or Bmp9 alone were added and the plates incubated for 90 min. After another wash step, bound Bmp9 was detected using a biotinylated anti-Bmp9 antibody and a secondary, HRP-conjugated antibody, allowing for colorimetric detection of cENG10 binding to the Bmp9/sEng complex.
For orientation: In an ELISA, binding on a coated surface is turned into a signal by an enzyme label.

Assay [2] concerns the target T2, endogenous sFlt-1 in pooled serum of pre-eclampsia patients (human, UniProt P17948-2 27-687, limits assumed).
T2 construct: also called sVEGFR1; soluble Flt-1 receptor
The assay can be described thus: 0.1 ml column, 1 mg antibody/ml beads, pooled serum of pre-eclampsia patients.

A further assay concerns the target T3, purified human Bmp9 (human, UniProt Q9UK05 320-429, limits assumed).
T3 construct: also called Bone Morphogenetic Protein 9
T3 sequence (looked up): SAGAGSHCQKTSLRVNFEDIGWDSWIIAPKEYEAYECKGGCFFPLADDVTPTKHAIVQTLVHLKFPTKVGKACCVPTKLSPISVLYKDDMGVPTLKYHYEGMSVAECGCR
The assay can be described thus: sandwich ELISA: cENG10 coated at 4 ug/mL, serial dilutions of Bmp9 alone, bound Bmp9 detected with biotinylated anti-Bmp9 antibody and an HRP conjugate. The method, then: as §1, §2

Assay [3] addresses T4, recombinant human (rh) Endoglin ectodomain (residues 1-586) containing C-terminal 6xHis tag (human, UniProt P17813 26-586).
T4 construct: range 1-586; Purified from HEK-293 cells; the stated range 1-586 includes the signal peptide; also called purified sEng antigen; sEng
T4 sequence: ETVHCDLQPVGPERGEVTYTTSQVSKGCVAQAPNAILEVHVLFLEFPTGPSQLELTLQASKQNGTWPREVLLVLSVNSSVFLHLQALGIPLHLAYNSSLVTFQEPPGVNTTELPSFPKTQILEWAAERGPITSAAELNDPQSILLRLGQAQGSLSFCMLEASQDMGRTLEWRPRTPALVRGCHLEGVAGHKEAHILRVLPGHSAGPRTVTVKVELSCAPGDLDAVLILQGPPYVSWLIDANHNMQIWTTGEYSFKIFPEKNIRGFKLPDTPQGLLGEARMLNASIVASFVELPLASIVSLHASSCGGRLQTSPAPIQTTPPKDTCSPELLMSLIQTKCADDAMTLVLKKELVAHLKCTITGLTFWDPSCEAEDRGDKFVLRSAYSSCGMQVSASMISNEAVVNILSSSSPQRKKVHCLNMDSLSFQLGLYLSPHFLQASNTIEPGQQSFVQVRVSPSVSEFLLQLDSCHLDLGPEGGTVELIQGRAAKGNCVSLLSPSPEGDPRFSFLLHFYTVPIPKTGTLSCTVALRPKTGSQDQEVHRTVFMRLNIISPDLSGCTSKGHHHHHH
The assay can be described thus: BLI (Octet QK), purified MAb on Protein-G biosensor, sEng 1-586 6xHis 50 nM in solution. The method, then:
Materials: Kinetics buffer—PBS solution containing 0.1% BSA and 0.05% Tween-20. Anti-sEng antibodies were purified from ascites of mice injected with hybridoma cells by Protein-G chromatography and buffer exchanged into PBS. For each run, 22 ug/ml (or 150 nM) of each antibody was loaded onto the Protein-G biosensor tip. Purified sEng antigen recombinant human (rh) Endoglin ectodomain (residues 1-586) containing C-terminal 6×His tag was purified from HEK-293 cells by metal affinity chromatography followed by size-exclusion chromatography pre-equilibrated in PBS. For each run, 3 ug/ml (or 50 nM) of sEng was used for association to MAbs bound to Protein-G biosensor tips. Protein-G Biosensor tips were purchased from the instrument supplier.

Assay [4] has as its target T5, recombinant human (rh) Endoglin ectodomain (residues 1-586) fused with human IgG1 Fc (human, UniProt P17813 26-586).
T5 construct: range 1-586; The stated range 1-586 includes the signal peptide, which would be absent from the secreted protein; also called sEng-Fc; sEng/Fc fusion protein; not shown: human IgG1 Fc
T5 sequence (looked up): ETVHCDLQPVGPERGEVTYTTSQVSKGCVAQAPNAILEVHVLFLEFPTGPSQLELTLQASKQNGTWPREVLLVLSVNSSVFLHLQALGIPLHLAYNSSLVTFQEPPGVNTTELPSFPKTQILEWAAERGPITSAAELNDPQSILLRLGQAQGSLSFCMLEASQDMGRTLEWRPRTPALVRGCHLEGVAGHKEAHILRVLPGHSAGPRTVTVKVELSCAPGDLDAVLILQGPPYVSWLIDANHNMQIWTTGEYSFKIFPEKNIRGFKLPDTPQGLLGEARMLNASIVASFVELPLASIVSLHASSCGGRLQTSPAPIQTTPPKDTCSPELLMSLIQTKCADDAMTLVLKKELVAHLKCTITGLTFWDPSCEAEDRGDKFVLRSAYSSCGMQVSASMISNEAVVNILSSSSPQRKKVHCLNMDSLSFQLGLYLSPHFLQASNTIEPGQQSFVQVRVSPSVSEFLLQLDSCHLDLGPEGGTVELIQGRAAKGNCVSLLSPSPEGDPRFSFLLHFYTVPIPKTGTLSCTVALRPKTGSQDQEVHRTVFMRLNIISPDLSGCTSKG
The assay can be described thus: BLI (Octet QK), MAb from hybridoma supernatant captured on anti-mouse IgG biosensor, sEng-Fc 170 nM in solution. How it is done: Materials: Kinetics buffer—PBS solution containing 0.1% BSA and 0.05% Tween-20 was used as the kinetics buffer. Test samples—culture supernatants from top 21 hybridoma clones with the strongest signals for binding to the sEng-Fc antigen as determined by ELISA. sEng antigen—recombinant human (rh) Endoglin ectodomain (residues 1-586) fused with human IgG1 Fc, diluted to 170 nM (30 ug/ml) with kinetics buffer. Biosensors—streptavidin biosensors, preloaded with biotinylated sheep anti-mouse IgG.
Binding affinities were determined using the ForteBio label-free Octet QK BLI system using the following protocol: [0237] i. Condition: Immerse biosensor tips in 200 uL of kinetics buffer for >10 min. [0238] ii. Baseline 1: Immerse biosensors in fresh culture medium for 1 min. [0239] iii. Load: Immerse biosensors in culture supernatant samples containing MAbs for 3 min. [0240] iv. Baseline: Immerse biosensors in kinetics buffer for 1 min. [0241] v. Binding/Association: Incubate biosensors with sEng-Fc Antigen for 5 min. [0242] vi. Dissociation: Incubate biosensors in kinetics buffer for 5 min.
Response signals (nm shifts) were used to calculate Kd values for the different antibodies.

As usually defined, the EC50 (read off the curve) is the midpoint of the concentration-response curve. What is called Kd is the concentration at which binding is half-saturated.

T2 sequence (P17948 other isoform, or with tags, fused parts or gaps limits assumed): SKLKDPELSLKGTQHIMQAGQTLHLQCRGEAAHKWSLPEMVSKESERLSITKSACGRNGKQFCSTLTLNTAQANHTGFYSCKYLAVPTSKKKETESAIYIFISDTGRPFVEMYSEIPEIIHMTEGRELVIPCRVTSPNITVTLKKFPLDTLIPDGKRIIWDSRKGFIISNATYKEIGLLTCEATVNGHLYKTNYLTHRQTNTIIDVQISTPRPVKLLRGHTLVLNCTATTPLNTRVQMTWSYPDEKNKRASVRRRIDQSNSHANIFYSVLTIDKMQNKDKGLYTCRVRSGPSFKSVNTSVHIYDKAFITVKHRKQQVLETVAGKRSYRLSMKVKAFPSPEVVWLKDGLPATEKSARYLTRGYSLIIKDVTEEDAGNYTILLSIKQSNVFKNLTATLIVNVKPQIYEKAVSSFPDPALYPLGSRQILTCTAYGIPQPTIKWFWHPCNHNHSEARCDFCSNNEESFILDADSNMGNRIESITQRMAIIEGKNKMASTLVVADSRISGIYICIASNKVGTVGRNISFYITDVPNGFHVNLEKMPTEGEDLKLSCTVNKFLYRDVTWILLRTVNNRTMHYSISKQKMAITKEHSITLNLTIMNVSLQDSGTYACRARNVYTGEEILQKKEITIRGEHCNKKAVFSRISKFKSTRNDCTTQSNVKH

B1: chimeric anti-sEng antibody cENG10 (antibody, human IgG1, kappa, N297Q, V domains shown)
VH: EVQLEQSGPEVVKPGTSVKISCKTSGYTITEHTLHWIKQNQGKSLEWIGGINFDNGGTTYRQKFKDKATLTVDKSSSTAFMELRSLTSDDSAVYFCARRAYYYGSAFDYWGQGTTLTVSS
VL: ENVLTQSPAIMSASLGEKVTMTCRASSSVNYVYWYQQKSDASPKLWIYYTSNLAPGVPARFSGSGSGNSYSLTISSMEGEDAATYYCQQFISFPYTFGGGTKLEIKR
notes: Murine MAb 210 variable regions on human IgG1 / kappa constant regions; also called αEng; cENG10 (CHO-derived)
Take B1: in assay [1], the “EC50 (read off the curve)” value was ~3 nM. Moreover, the figures for the binding result (in assay [2]; with purified human Bmp9) were “no binding” and “no binding (tested: 20 nM)”, respectively.

B2: MAb 210 (antibody, V domains shown)
VH: EVQLEQSGPEVVKPGTSVKISCKTSGYTITEHTLHWIKQNQGKSLEWIGGINFDNGGTTYRQKFKDKATLTVDKSSSTAFMELRSLTSDDSAVYFCARRAYYYGSAFDYWGQGTTLTVSS
VL: ENVLTQSPAIMSASLGEKVTMTCRASSSVNYVYWYQQKSDASPKLWIYYTSNLAPGVPARFSGSGSGNSYSLTISSMEGEDAATYYCQQFISFPYTFGGGTKLEIK
notes: Murine monoclonal antibody from hybridoma; also called lead antibody
On to B2, for which the Kd was found to be 2.2 nM in assay [3] and 0.61 nM in assay [4].
